Measured values from doi:10.1101/2021.05.16.444004 (bioRxiv, 2021).

Target: SARS-CoV-2 RBD-SD1 (SARS-CoV-2, Wuhan-Hu-1, UniProt P0DTC2)
Experiment: BLI

B1: 54042-4 IgG (antibody, V domains shown)
VH: QITLKESGPTLVKPTQTLTLTCTFSGFSLSTIGVGVSWIRQPPGKALDWLALIYWDDDKRYSPSLKSRLTVTMDTSKNQVVLTLTNMDPVDTATYFCAHGLFSSSDWGGLDVWGQGTTVTVSS
VL: DMQMTQSPSSLSASVGDRVTITCRASQSVFTYLNWYQQKPGKAPKLLIYAASRLQSGVPSRFRGSGSGTDFTLTISSLQPEDFATYYCQQSHSTPFIFGPGTKVDIK
With B1 the Kd was 21.8 nM.
